Laboratory results as given in article PMC4983110, “Shared and distinct functions of the pseudokinase CORYNE (CRN) in shoot and root stem cell maintenance of Arabidopsis” (Journal of Experimental Botany, 2016).

T1: CLAVATA2 (CLV2), wild type, tagged with GFP (Arabidopsis thaliana, UniProt O80809 26-720)
T1 construct: CLAVATA2 (CLV2), Arabidopsis thaliana, LRR receptor-like protein, wild type, from cDNA; also called CLV2-GFP; source: N. benthamiana, transiently expressed from an inducible vector, in living cells
T1 sequence (looked up): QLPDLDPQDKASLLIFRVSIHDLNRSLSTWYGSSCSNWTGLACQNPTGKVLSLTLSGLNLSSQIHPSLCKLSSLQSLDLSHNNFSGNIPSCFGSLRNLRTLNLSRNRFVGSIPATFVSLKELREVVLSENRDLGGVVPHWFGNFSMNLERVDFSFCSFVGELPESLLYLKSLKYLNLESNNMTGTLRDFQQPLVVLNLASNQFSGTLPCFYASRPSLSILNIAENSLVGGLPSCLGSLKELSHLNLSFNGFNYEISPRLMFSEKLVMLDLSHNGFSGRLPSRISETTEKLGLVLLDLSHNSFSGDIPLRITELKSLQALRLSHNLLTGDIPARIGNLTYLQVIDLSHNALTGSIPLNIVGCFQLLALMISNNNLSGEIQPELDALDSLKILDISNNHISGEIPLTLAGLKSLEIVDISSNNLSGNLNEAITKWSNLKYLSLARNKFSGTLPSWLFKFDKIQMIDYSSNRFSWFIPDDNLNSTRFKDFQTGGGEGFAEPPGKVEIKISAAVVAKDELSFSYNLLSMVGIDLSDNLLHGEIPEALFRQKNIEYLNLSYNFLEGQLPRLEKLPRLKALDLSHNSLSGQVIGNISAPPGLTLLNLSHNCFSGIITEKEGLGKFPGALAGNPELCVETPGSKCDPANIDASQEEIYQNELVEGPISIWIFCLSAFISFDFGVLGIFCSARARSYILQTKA

T2: CLAVATA2 (CLV2), wild type, tagged with mCherry (Arabidopsis thaliana, UniProt O80809 26-720)
T2 construct: CLAVATA2 (CLV2), Arabidopsis thaliana, LRR receptor-like protein, wild type, from cDNA; also called CLV2-mCherry; source: N. benthamiana, transiently expressed from an inducible vector, in living cells
T2 sequence (looked up): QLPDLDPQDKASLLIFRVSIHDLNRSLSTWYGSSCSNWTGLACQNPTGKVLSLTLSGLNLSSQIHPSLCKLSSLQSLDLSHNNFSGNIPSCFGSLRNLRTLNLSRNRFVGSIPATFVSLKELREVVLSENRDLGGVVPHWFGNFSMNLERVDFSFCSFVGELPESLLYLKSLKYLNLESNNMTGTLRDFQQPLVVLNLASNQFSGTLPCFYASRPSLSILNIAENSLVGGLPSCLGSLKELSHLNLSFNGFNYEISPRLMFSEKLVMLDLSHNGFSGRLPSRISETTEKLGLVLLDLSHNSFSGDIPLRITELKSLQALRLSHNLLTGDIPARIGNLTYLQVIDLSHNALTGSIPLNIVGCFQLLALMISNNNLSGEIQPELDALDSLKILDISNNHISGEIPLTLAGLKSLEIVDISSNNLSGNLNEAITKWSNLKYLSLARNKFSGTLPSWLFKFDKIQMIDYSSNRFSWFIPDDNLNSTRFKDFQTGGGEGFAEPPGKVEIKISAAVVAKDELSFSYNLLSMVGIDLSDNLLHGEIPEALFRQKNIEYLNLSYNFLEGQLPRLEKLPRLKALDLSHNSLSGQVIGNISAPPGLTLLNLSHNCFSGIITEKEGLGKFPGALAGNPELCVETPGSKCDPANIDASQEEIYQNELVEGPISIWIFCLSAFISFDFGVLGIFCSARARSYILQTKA


What was measured:
Assay in all cases: FRET or BRET; FRET-APB (acceptor photobleaching) in transiently transformed Nicotiana benthamiana cells; GFP donor, mCherry acceptor bleached in a region along the plasma membrane; apparent FRET efficiency as donor-dequenching in %
[1] = target: CLAVATA2 (CLV2), wild type, tagged with mCherry (Arabidopsis thaliana) (UniProt O80809)
[2] = target: T1, CLAVATA2 (CLV2), wild type, tagged with …; details: partners not purified
[3] = target: CLV2 with the first conserved arginine of the RxR motif replaced with an alanine, tagged with GFP (Arabidopsis thaliana) (UniProt O80809)
[4] = target: CLV2 with the entire RxR motif deleted, tagged with GFP (Arabidopsis thaliana) (UniProt O80809)
[5] = target: chimeric protein of the CLV2 LRR-receptor and its TMD fused to the CRN kinase domain, tagged with GFP (Arabidopsis thaliana) (UniProt Q9LYU7)
[6] = target: T2, CLAVATA2 (CLV2), wild type, tagged with …; details: partners not purified

Molecule | D-d (%) (donor-dequenching, apparent FRET efficiency) [1] | D-d (%) (donor-dequenching, apparent FRET efficiency) [6] | also measured
CRN lacking the proximal part of the extracellular domain adjacent to the TMD, tagged with GFP (from UniProt Q9LYU7 34-62) (natural protein) | 10.5 |  | 
CRN lacking the N-terminal, distal part of the extracellular domain, tagged with GFP (from UniProt Q9LYU7 34-62) (natural protein) | 11.2 |  | 
CRN lacking the entire extracellular domain, tagged with GFP (from UniProt Q9LYU7 34-62) (natural protein) | 7.2 |  | 
CORYNE (CRN), wild type, tagged with mCherry (natural protein, Arabidopsis thaliana, UniProt Q9LYU7 34-401, looked up, CORYNE (CRN), Arabidopsis thaliana, wild type, from cDNA; the longer splice variant, not gene model AT5G13290.1; also called CRN-mCherry; source: N. benthamiana, transiently expressed from an inducible vector, in living cells) TSCRRRTVKHLSTTSTSSTPLESRITSKVIVISIVSGILTGLVSALVLAFLVRSIVKFMKQTPILKGPVVFSPKITPKSLHAALSNGIQLLGSDLNGKYYKMVLDNGLVVAVKRLGSLEGVGSPESSSSKSVKRRLQKELELLAGLRHRNLMSLRAYVRESDEFSLVYDYMPNGSLEDVMNKVRTKEVELGWEIRLRVAVGIVKGLQYLHFSCETQILHYNLKPTNVMLDSEFEPRLADCGLAKIMPSSHTAVSCYSAPESSQSNRYTDKSDIFSFGMILGVLLTGRDPTHPFCEESASGGSLGQWLKHLQQSGEAREALDKTILGEEVEEDEMLMALRITIICLSDFPADRPSSDELVHMLTQLHSF |  |  | D-d (%) (donor-dequenching, apparent FRET efficiency) [2]: 11.7%; D-d (%) (donor-dequenching, apparent FRET efficiency) [3]: 14.2%; D-d (%) (donor-dequenching, apparent FRET efficiency) [4]: 11.4%; D-d (%) (donor-dequenching, apparent FRET efficiency) [5]: 5.7%
CORYNE (CRN), wild type, tagged with GFP (natural protein, Arabidopsis thaliana, UniProt Q9LYU7 34-401, looked up, CORYNE (CRN), Arabidopsis thaliana, wild type, from cDNA; Residue numbers (G70, S156, Q296) count on the longer splice variant, not on gene model AT5G13290.1, on which S156 is S131; also called CRN-GFP; source: N. benthamiana, transiently expressed from an inducible vector, in living cells) TSCRRRTVKHLSTTSTSSTPLESRITSKVIVISIVSGILTGLVSALVLAFLVRSIVKFMKQTPILKGPVVFSPKITPKSLHAALSNGIQLLGSDLNGKYYKMVLDNGLVVAVKRLGSLEGVGSPESSSSKSVKRRLQKELELLAGLRHRNLMSLRAYVRESDEFSLVYDYMPNGSLEDVMNKVRTKEVELGWEIRLRVAVGIVKGLQYLHFSCETQILHYNLKPTNVMLDSEFEPRLADCGLAKIMPSSHTAVSCYSAPESSQSNRYTDKSDIFSFGMILGVLLTGRDPTHPFCEESASGGSLGQWLKHLQQSGEAREALDKTILGEEVEEDEMLMALRITIICLSDFPADRPSSDELVHMLTQLHSF |  | 10.5 | 

The next lines start with results.

D-d (%) (donor-dequenching, apparent FRET efficiency) [1] | D-d (%) (donor-dequenching, apparent FRET efficiency) [6] | Molecule | also measured
10.3 |  | chimera of CRN in which the kinase is replaced with the kinase domain of CLV1, tagged with GFP (from UniProt Q9SYQ8 692-968) | 
24.5 |  | shortened CRN protein lacking the kinase, tagged with GFP (domain or fragment) | 
 | 12.2 | CRN with S156D (putative phosphomimetic variant), tagged with GFP (natural protein, Arabidopsis thaliana, UniProt Q9LYU7 34-401, looked up, CRN, Arabidopsis thaliana, serine 156 replaced with aspartic acid; S156 is S131 on gene model AT5G13290.1 (the shorter splice variant); also called CR(SD)-GFP; CR(SD); source: N. benthamiana, transiently expressed, in living cells) TSCRRRTVKHLSTTSTSSTPLESRITSKVIVISIVSGILTGLVSALVLAFLVRSIVKFMKQTPILKGPVVFSPKITPKSLHAALSNGIQLLGSDLNGKYYKMVLDNGLVVAVKRLGSLEGVGDPESSSSKSVKRRLQKELELLAGLRHRNLMSLRAYVRESDEFSLVYDYMPNGSLEDVMNKVRTKEVELGWEIRLRVAVGIVKGLQYLHFSCETQILHYNLKPTNVMLDSEFEPRLADCGLAKIMPSSHTAVSCYSAPESSQSNRYTDKSDIFSFGMILGVLLTGRDPTHPFCEESASGGSLGQWLKHLQQSGEAREALDKTILGEEVEEDEMLMALRITIICLSDFPADRPSSDELVHMLTQLHSF | 
 | 13.5 | CRN with S156A (phosphomute variant), tagged with GFP (natural protein, Arabidopsis thaliana, UniProt Q9LYU7 34-401, looked up, CRN, Arabidopsis thaliana, serine 156 replaced with alanine; S156 is S131 on gene model AT5G13290.1 (the shorter splice variant); also called CR(SA)-GFP; CR(SA); source: N. benthamiana, transiently expressed, in living cells) TSCRRRTVKHLSTTSTSSTPLESRITSKVIVISIVSGILTGLVSALVLAFLVRSIVKFMKQTPILKGPVVFSPKITPKSLHAALSNGIQLLGSDLNGKYYKMVLDNGLVVAVKRLGSLEGVGAPESSSSKSVKRRLQKELELLAGLRHRNLMSLRAYVRESDEFSLVYDYMPNGSLEDVMNKVRTKEVELGWEIRLRVAVGIVKGLQYLHFSCETQILHYNLKPTNVMLDSEFEPRLADCGLAKIMPSSHTAVSCYSAPESSQSNRYTDKSDIFSFGMILGVLLTGRDPTHPFCEESASGGSLGQWLKHLQQSGEAREALDKTILGEEVEEDEMLMALRITIICLSDFPADRPSSDELVHMLTQLHSF | 
 | 5.2 | crn-1 variant of CRN (G70E in the predicted TMD), tagged with GFP (natural protein, Arabidopsis thaliana, UniProt Q9LYU7 34-401, looked up, CRN, Arabidopsis thaliana, with the amino acid exchange G70E of the EMS-induced crn-1 allele in the predicted TMD; also called crn-1-GFP; source: N. benthamiana, transiently expressed, in living cells) TSCRRRTVKHLSTTSTSSTPLESRITSKVIVISIVSEILTGLVSALVLAFLVRSIVKFMKQTPILKGPVVFSPKITPKSLHAALSNGIQLLGSDLNGKYYKMVLDNGLVVAVKRLGSLEGVGSPESSSSKSVKRRLQKELELLAGLRHRNLMSLRAYVRESDEFSLVYDYMPNGSLEDVMNKVRTKEVELGWEIRLRVAVGIVKGLQYLHFSCETQILHYNLKPTNVMLDSEFEPRLADCGLAKIMPSSHTAVSCYSAPESSQSNRYTDKSDIFSFGMILGVLLTGRDPTHPFCEESASGGSLGQWLKHLQQSGEAREALDKTILGEEVEEDEMLMALRITIICLSDFPADRPSSDELVHMLTQLHSF | 
 | 18.3 | crn-3 variant of CRN (translational stop at Q296, kinase domain shortened by one third), tagged with GFP (domain or fragment, Arabidopsis thaliana, UniProt Q9LYU7 34-295, looked up, signal peptide in the construct; CRN, Arabidopsis thaliana, truncated by the point mutation at Q296 of the EMS-induced crn-3 allele, which causes a translational stop; also called crn-3-GFP; source: N. benthamiana, transiently expressed, in living cells) TSCRRRTVKHLSTTSTSSTPLESRITSKVIVISIVSGILTGLVSALVLAFLVRSIVKFMKQTPILKGPVVFSPKITPKSLHAALSNGIQLLGSDLNGKYYKMVLDNGLVVAVKRLGSLEGVGSPESSSSKSVKRRLQKELELLAGLRHRNLMSLRAYVRESDEFSLVYDYMPNGSLEDVMNKVRTKEVELGWEIRLRVAVGIVKGLQYLHFSCETQILHYNLKPTNVMLDSEFEPRLADCGLAKIMPSSHTAVSCYSAPESS | 
